Results on two molecules are retold here after article PMC9242648, “Hypertrophic cardiomyopathy mutations in the pliant and light chain-binding regions of the lever arm of human β-cardiac myosin have divergent effects on myosin function” (eLife, 2022).

Assay [1] has as its target T1, human β-cardiac myosin 2-hep heavy chain, wild type (human | ).
T1 chain: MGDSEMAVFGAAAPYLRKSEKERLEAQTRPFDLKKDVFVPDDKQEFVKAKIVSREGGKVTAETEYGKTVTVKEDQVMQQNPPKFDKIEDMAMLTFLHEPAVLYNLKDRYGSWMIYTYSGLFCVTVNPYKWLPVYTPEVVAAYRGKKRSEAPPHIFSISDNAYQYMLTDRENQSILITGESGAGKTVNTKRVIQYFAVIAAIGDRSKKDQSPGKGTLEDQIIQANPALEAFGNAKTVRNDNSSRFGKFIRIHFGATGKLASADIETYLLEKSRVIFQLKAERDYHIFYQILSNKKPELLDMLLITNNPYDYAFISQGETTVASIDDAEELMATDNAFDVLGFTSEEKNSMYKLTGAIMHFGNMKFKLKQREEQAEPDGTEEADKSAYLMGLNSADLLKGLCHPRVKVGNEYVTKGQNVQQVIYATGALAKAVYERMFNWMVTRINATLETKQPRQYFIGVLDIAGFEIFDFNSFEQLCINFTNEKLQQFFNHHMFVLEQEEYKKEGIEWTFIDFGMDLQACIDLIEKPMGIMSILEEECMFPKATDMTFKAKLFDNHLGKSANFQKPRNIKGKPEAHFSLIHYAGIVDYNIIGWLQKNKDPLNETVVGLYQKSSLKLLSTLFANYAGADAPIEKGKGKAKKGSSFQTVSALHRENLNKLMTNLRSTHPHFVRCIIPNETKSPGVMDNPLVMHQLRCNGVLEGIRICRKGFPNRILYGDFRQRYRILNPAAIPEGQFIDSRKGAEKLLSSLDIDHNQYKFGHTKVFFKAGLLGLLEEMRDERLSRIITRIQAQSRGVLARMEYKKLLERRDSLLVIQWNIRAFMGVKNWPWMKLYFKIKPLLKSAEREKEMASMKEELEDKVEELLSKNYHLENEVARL
Description: light chain loading gel assay (Coomassie SDS-PAGE densitometry of the co-purified complex); ELC co-expressed with the 2-hep heavy chain in C2C12 cells and purified through the FLAG tag of the ELC; buffer exchanged 5x in a 50 or 100 kDa filter to remove unbound light chains; dilution series 10-1 pmol per lane, 700 nm scan, slope of light chain over slope of heavy chain. The conditions noted are these: partners not purified.

Assay [2] concerns the target T1, human β-cardiac myosin 2-hep heavy …. In words: light chain loading gel assay (Coomassie SDS-PAGE densitometry of the co-purified complex); human RLC purified from E. coli added to myosin held on anti-FLAG resin after depletion of native mouse RLC (>2.5 hr, 4°C); buffer exchanged 5x in a 50 or 100 kDa filter to remove unbound light chains; dilution series 10-1 pmol per lane, 700 nm scan, slope of light chain over slope of heavy chain. The conditions noted are these: both partners purified.

B1: human essential light chain (MYL3) (natural protein)
chain: not shown
notes: human essential light chain, MYL3; N-terminal FLAG tag followed by a TEV protease site; TEV protease cleaved the ELC-myosin complex off the anti-FLAG resin; also called ELC; not shown: FLAG, N-terminal, cleaved
As to B1, the “ELC/HC ratio (Coomassie band density, light chain over heavy chain)” value in assay [1] worked out at 0.19.

B2: human regulatory light chain (MYL2) (natural protein, UniProt P10916 1-166, looked up)
chain: MAPKKAKKRAGGANSNVFSMFEQTQIQEFKEAFTIMDQNRDGFIDKNDLRDTFAALGRVNVKNEEIDEMIKEAPGPINFTVFLTMFGEKLKGADPEETILNAFKVFDPEGKGVLKADYVREMLTTQAERFSKEEVDQMFAAFPPDVTGNLDYKNLVHIITHGEEKD
notes: human regulatory light chain, MYL2; N-terminal His-TEV tag added; also called RLC; source: E. coli, purified (as in Nag et al., 2017)
For B2, the “RLC/HC ratio (Coomassie band density, light chain over heavy chain)” value in assay [2] stood at 0.11.
